Measured values reported in the RNAGym collection of RNA variant scans (doi:10.1073/pnas.2313332121).

B1: TPR t1 (parent)
chain: GACCAAUCUGCCCUCAGAGCUCGAGAACAUCUUCGGAUGCAGAGGAGGCAGGCUUCGGUGGCGCGAUAGCGCCAACGUCCUCAACCUCCAAUGCAUCCCACCACAUGAUGAUGCCUGAAGAGCCUUGGUUUUUUG

Variants of: B1
Test: polymerase ribozyme fitness, log enrichment relative to wild type (log ratio); higher = more active; in vitro selection for triplet polymerase activity
Outline: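 The heterodimeric triplet polymerase ribozyme's subunits were each mutagenized into PCR-built libraries and transcribed. Every library was selected once, in triplicate, by annealing with a biotinylated primer, the partner subunit and triplets, incubating frozen at −7 °C, gel-excising extended constructs, capturing on streptavidin beads and running RT-PCR. Input and output libraries were Illumina-sequenced, with genotypes kept only at ≥10 input reads and ≥1 read per output. Fitness, from inverse-variance-weighted replicate averages, is the base-2 logarithm of genotype enrichment over wild-type enrichment.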

Going from G113U U131C to C115U G120A U131A, the “polymerase ribozyme fitness (log ratio)” value rises from -3.4 to -2.07.

Compared with G113U C124U, G120U G135U is higher in “polymerase ribozyme fitness (log ratio)” value: -2.48 for the first, -1.2 for the second.

Going from G113U G128U to G113U G128A, the “polymerase ribozyme fitness (log ratio)” value rises from -4.72 to -3.35.

First: G113U G128C
Second: G122A U129C
The “polymerase ribozyme fitness (log ratio)” value of the first is lower: -4.63 for the first, -0.808 for the second.

First: U129A U130C
Second: G117C U129G
The “polymerase ribozyme fitness (log ratio)” value of the first is higher: -0.653 for the first, -6.14 for the second.

First: C114G C124A G135A
Second: C114A G117C
The “polymerase ribozyme fitness (log ratio)” value of the first is higher: -0.373 for the first, -4.77 for the second.

Compared with C115G A119G, G120A U129A is lower in “polymerase ribozyme fitness (log ratio)” value: 1.52 for the first, -0.0881 for the second.

Compared with G113U U132A, A121U C123A C124G is higher in “polymerase ribozyme fitness (log ratio)” value: -2.22 for the first, 2.17 for the second.

Compared with C115G C124U, G113U G117A is lower in “polymerase ribozyme fitness (log ratio)” value: -1.13 for the first, -5.13 for the second.

Compared with C124A, C124U is lower in “polymerase ribozyme fitness (log ratio)” value: 1.78 for the first, 1.54 for the second.

Compared with C124G, A121U G135U is lower in “polymerase ribozyme fitness (log ratio)” value: 1.59 for the first, 1.28 for the second.

A121U U129G and C123U are within 0.2 log units of each other in “polymerase ribozyme fitness (log ratio)” value: 1.22 for the first, 1.07 for the second.

First: C123A
Second: C123G
The “polymerase ribozyme fitness (log ratio)” value of the first is lower: 0.556 for the first, 1.8 for the second.

Going from U125A U126G to A121U, the “polymerase ribozyme fitness (log ratio)” value rises from -1.8 to 2.12.

A121G and A121C are within 0.2 log units of each other in “polymerase ribozyme fitness (log ratio)” value: 1.88 for the first, 1.74 for the second.

Going from C124U G135U to C115U G122U, the “polymerase ribozyme fitness (log ratio)” value falls from -0.0615 to -1.31.

Going from U116C A121G U129C to C115A G135U, the “polymerase ribozyme fitness (log ratio)” value rises from -3.73 to -0.547.

Compared with G120U U133A, U125A G127C is lower in “polymerase ribozyme fitness (log ratio)” value: 0.165 for the first, -1.91 for the second.

Compared with G117A U129A, G117A U129C is higher in “polymerase ribozyme fitness (log ratio)” value: -3.39 for the first, -2.05 for the second.

First: C123A U132A
Second: G122A C124G
The “polymerase ribozyme fitness (log ratio)” value of the first is lower: 1.54 for the first, 1.86 for the second.

Going from C124G U131G to C124G U131A, the “polymerase ribozyme fitness (log ratio)” value rises from 1.33 to 2.2.

Going from C124A G128A to G117A U125G, the “polymerase ribozyme fitness (log ratio)” value falls from -0.565 to -1.64.

Compared with U116G G117A, C114A G117U C124U is lower in “polymerase ribozyme fitness (log ratio)” value: -1.82 for the first, -6.08 for the second.

First: G120U U129C
Second: C123U G128C
The “polymerase ribozyme fitness (log ratio)” value of the first is lower: -0.774 for the first, -0.354 for the second.

Going from C114U A118U to C123G G128C, the “polymerase ribozyme fitness (log ratio)” value rises from -3.68 to -0.446.

Compared with U116G U125A, A121U C124A is higher in “polymerase ribozyme fitness (log ratio)” value: -2.37 for the first, 2.1 for the second.

Going from A121C U131G to G117C G120A, the “polymerase ribozyme fitness (log ratio)” value falls from 1.12 to -3.91.

First: G117U U133C
Second: C114G U126G
The “polymerase ribozyme fitness (log ratio)” value of the first is higher: -2.23 for the first, -4.32 for the second.

First: U116G C123U G128A
Second: U129G U133A
The “polymerase ribozyme fitness (log ratio)” value of the first is lower: -5.61 for the first, -2 for the second.

Going from C115A U116A to U116C G135A, the “polymerase ribozyme fitness (log ratio)” value rises from -2.84 to -0.82.

Compared with G120A G122A G128C, C124A U133G is higher in “polymerase ribozyme fitness (log ratio)” value: -2.03 for the first, -0.27 for the second.

Compared with C115U G117C, C114U U132A is higher in “polymerase ribozyme fitness (log ratio)” value: -3.48 for the first, -1.1 for the second.

Compared with C114U U133G, C115A A118U U131A is lower in “polymerase ribozyme fitness (log ratio)” value: -0.517 for the first, -1.85 for the second.

Compared with G120C G127U, G120A U126C is lower in “polymerase ribozyme fitness (log ratio)” value: 2.11 for the first, -0.356 for the second.

Compared with G113U G127U, G113U G127C is higher in “polymerase ribozyme fitness (log ratio)” value: -4.46 for the first, -1.61 for the second.

First: G122A G128U G135U
Second: G113U G135U
The “polymerase ribozyme fitness (log ratio)” value of the first is higher: -2.49 for the first, -3.24 for the second.

First: U116A C123U
Second: G120C G135C
The “polymerase ribozyme fitness (log ratio)” value of the first is lower: -1.63 for the first, 1.48 for the second.

Going from G122A U130G to G122A U130C, the “polymerase ribozyme fitness (log ratio)” value rises from -1.01 to -0.597.

Compared with G120U U130A, G120U U130G is lower in “polymerase ribozyme fitness (log ratio)” value: -0.3 for the first, -0.763 for the second.

Going from G117A G135U to G117A G135C, the “polymerase ribozyme fitness (log ratio)” value rises from -1.92 to -1.41.

First: U126A G128C
Second: G117A G127A
The “polymerase ribozyme fitness (log ratio)” value of the first is higher: -2.86 for the first, -4.19 for the second.

For G117A G127C, the “polymerase ribozyme fitness (log ratio)” value was -1.7.
